Test results published in patent US20160339053A1.

Target: recombinant mouse ICAM-1 (mouse) (UniProt P13597)
Experiment: cell-based or functional assay

Sequence of UniProt P13597 (P13597 28-485 limits assumed): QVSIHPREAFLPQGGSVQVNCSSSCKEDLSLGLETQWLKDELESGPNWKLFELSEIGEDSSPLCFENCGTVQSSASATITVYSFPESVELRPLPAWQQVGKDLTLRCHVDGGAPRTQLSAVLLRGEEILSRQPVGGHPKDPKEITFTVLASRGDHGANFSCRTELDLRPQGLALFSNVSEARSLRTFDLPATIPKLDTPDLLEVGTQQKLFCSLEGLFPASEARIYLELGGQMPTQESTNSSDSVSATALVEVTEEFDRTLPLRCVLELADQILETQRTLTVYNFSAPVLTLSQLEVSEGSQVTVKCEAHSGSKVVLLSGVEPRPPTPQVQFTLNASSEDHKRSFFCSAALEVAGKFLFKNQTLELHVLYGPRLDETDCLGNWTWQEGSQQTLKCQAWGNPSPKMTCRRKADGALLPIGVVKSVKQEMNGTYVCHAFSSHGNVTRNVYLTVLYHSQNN

adhesion of WT preactivated CD4+ T cells to ICAM-1-coated plates (percent of input cells): 10%
adhesion of WT preactivated CD4+ T cells to ICAM-1-coated plates, fold over basal after CXCL12, CCL21 or anti-CD3: 2 to 5 fold
Substance: LFA-1 on mouse preactivated CD4+ T cells (from UniProt P24063 24-1162; P11835 24-771) (receptor)
